From US12697371B2, “Method for preventing, treating or delaying myocardial damage using neuregulin and composition” (ZENSUN (SHANGHAI) SCIENCE & TECHNOLOGY, CO., LTD., priority 2019, dated 2026)
Entries after “also recorded” stand apart in the source; their conditions may differ.

Columns and labels:
[1] = tested on: rats with acute myocardial infarction caused by left coronary artery ligation; experiment: Echocardiography, rat acute myocardial infarction (left coronary artery ligation), 60-day subcutaneous NRG at different doses (Example 1); assay type: in vivo, Wistar rats; details: for EF / LVEDd / LVEDs: 3 times a day
Description: 5.1 Establishment of a Rat Model of Heart Failure Caused by Coronary Artery Ligation
The rats were anesthetized with isoflurane through a gaseous anesthesia apparatus. Then, the rats were fixed in a supine position. After chest hair removal, the skin was disinfected with 75% alcohol. After the incision of the left anterior chest skin, the thoracic muscles were bluntly separated, with the 4th and 5th ribs exposed. Hemostatic forceps were used to bluntly cut off the muscle between the 4th and 5th ribs. Both hands were used to squeeze the heart out of the thoracic cavity so that the heart should be fully exposed for observation of lung inflation and heartbeats. The left atrial appendage and pulmonary conus were fully exposed to ligate the left anterior descending coronary artery (LADCA) with surgical suture between them. […] Then, the thoracic muscles and skin were sutured. After surgery, the rats were put back into the cages for feeding and close observations.
Administration began on the day following the animal model establishment of myocardial infarction.
(§1) After being anesthetized with 4% isoflurane, the rats were fixed onto the operating board in the left lateral recumbent position. The head of the rats was fixed in the breathing mask of the gaseous anesthesia machine, with isoflurane used for maintenance of anesthesia. After chest hair removal, the skin was disinfected with 75% alcohol and coated with a coupling agent. An echocardiography probe was used to detect any echo signal from the left ventricle of the rats. The left ventricular end-diastolic diameter and left ventricular end-systolic diameter (D) were measured. The left ventricular end-diastolic volume (EDV) and end-systolic volume (ESV) were calculated. Also, the ejection fraction (EF) value was found, EF=(EDV−ESV)/EDV*100%.

[2] = tested on: rats with acute myocardial infarction caused by left coronary artery ligation; experiment: Echocardiography, rat acute myocardial infarction, long-term subcutaneous NRG followed by withdrawal through frequency reduction (Example 3); assay type: in vivo, Wistar rats
Experimental: Established in the same way as the rat model of heart failure caused by coronary artery ligation in 5.1, Embodiment 1
The rats were randomly divided into groups and medicated upon coronary artery ligation. According to post-ligation survival, the rats were randomly divided into two groups, including the excipient group and the NRG30 μg/kg group. There were 19 rats in the excipient group and there were 18 rats in the NRG group. Continuous administration of medicine started on the day following the modeling, with subcutaneous administration for 3 times a day, at a dose of 10 μg/kg. Echocardiography was performed on day 14 after modeling. All the animals were medicated continuously until day 38, and the animals in the NRG group were examined by echocardiography. The animals in the NRG group were averagely divided into two subgroups, with the animals in one subgroup continuing to be medicated while the animals in the other subgroup stopped taking medicine at an early stage. The excipient group continued to be medicated. For the continuous NRG administration subgroup, a 3-week withdrawal plan was implemented on day 49: medicated every other day in the first week; medicated every three days in the second week; subcutaneously injected with NRG every four days in the third week. In terms of administration method, the rats were subcutaneously injected with NRG 3 times a day, exactly the same as above. For the NRG withdrawal subgroup, the clinical symptoms of the rats were observed. All the animals underwent echocardiography every week for monitoring of the changes in the cardiac function.
as §1
All experimental data were expressed in ±SD. GraphPad Prism6 was used for one-way ANOVA analysis. P<0.05 indicates a significant inter-group difference; P<0.01 indicates an extremely significant inter-group difference.

[3] = DAY 14, 30 μg/kg sc (10 μg/kg 3 times a day), continuous
[4] = DAY 21, 30 μg/kg sc (10 μg/kg 3 times a day), continuous
[5] = DAY 28, 30 μg/kg sc (10 μg/kg 3 times a day), continuous
[6] = DAY 35, 30 μg/kg sc (10 μg/kg 3 times a day), continuous
[7] = DAY 38, Administration subgroup, 30 μg/kg sc continued
[8] = DAY 38, Withdrawal subgroup, 30 μg/kg sc until day 38, then stopped
[9] = DAY 42, Administration subgroup, 30 μg/kg sc continued
[10] = DAY 42, Withdrawal subgroup, 30 μg/kg sc until day 38, then stopped
[11] = DAY 49, Administration subgroup, 30 μg/kg sc continued
[12] = DAY 49, Withdrawal subgroup, 30 μg/kg sc until day 38, then stopped
[13] = DAY 56, Administration subgroup, 30 μg/kg sc, 3-week gradual withdrawal by frequency reduction from day 49
[14] = DAY 56, Withdrawal subgroup, 30 μg/kg sc until day 38, then stopped
[15] = DAY 63, Administration subgroup, 30 μg/kg sc, 3-week gradual withdrawal by frequency reduction from day 49
[16] = DAY 63, Withdrawal subgroup, 30 μg/kg sc until day 38, then stopped
[17] = DAY 68, Administration subgroup, 30 μg/kg sc, 3-week gradual withdrawal by frequency reduction from day 49
[18] = DAY 68, Withdrawal subgroup, 30 μg/kg sc until day 38, then stopped
[19] = DAY 74, Administration subgroup, 30 μg/kg sc, 3-week gradual withdrawal by frequency reduction from day 49
[20] = DAY 74, Withdrawal subgroup, 30 μg/kg sc until day 38, then stopped

B1: NRG: fragment of the NRG-1β2 isomer, 177-237 amino acid fragment containing an EGF-like domain (SEQ ID NO: 1); developed by Zensun (protein, listed as Homo sapiens)
chain: SHLVKCAEKEKTFCVNGGECFMVKDLSNPSRYLCKCPNEFTGDRCQNYVMASFYKAEELYQ
- EF ([1]; DAY 20, 3.75 μg/kg/D sc): 39.7 ± 10.84%
- LVEDd ([1]; DAY 20, 3.75 μg/kg/D sc): 0.937 ± 0.06 cm
- LVEDs ([1]; DAY 20, 3.75 μg/kg/D sc): 0.777 ± 0.08 cm
- EF ([1]; DAY 20, 7.5 μg/kg/D sc): 41.9 ± 15.17%
- LVEDd ([1]; DAY 20, 7.5 μg/kg/D sc): 0.924 ± 0.05 cm
- LVEDs ([1]; DAY 20, 7.5 μg/kg/D sc): 0.756 ± 0.08 cm
- EF ([1]; DAY 20, 15 μg/kg/D sc): 40.6 ± 9.15%
- LVEDd ([1]; DAY 20, 15 μg/kg/D sc): 0.908 ± 0.05 cm
- LVEDs ([1]; DAY 20, 15 μg/kg/D sc): 0.759 ± 0.08 cm
- EF ([1]; DAY 40, 3.75 μg/kg/D sc): 40.4 ± 12.86%
- LVEDd ([1]; DAY 40, 3.75 μg/kg/D sc): 0.982 ± 0.09 cm
- LVEDs ([1]; DAY 40, 3.75 μg/kg/D sc): 0.813 ± 0.13 cm
- EF ([1]; DAY 40, 7.5 μg/kg/D sc): 40.5 ± 13.39%
- LVEDd ([1]; DAY 40, 7.5 μg/kg/D sc): 0.946 ± 0.08 cm
- LVEDs ([1]; DAY 40, 7.5 μg/kg/D sc): 0.782 ± 0.12 cm
- EF ([1]; DAY 40, 15 μg/kg/D sc): 42.2 ± 11.27%
- LVEDd ([1]; DAY 40, 15 μg/kg/D sc): 0.946 ± 0.08 cm
- LVEDs ([1]; DAY 40, 15 μg/kg/D sc): 0.775 ± 0.11 cm
- EF ([1]; DAY 60, 3.75 μg/kg/D sc): 37.0±12.23%
- LVEDd ([1]; DAY 60, 3.75 μg/kg/D sc): 0.994±0.08 cm
- LVEDs ([1]; DAY 60, 3.75 μg/kg/D sc): 0.839±0.12 cm
- EF ([1]; DAY 60, 7.5 μg/kg/D sc): 38.4±12.17%
- LVEDd ([1]; DAY 60, 7.5 μg/kg/D sc): 0.965±0.07 cm
- LVEDs ([1]; DAY 60, 7.5 μg/kg/D sc): 0.808±0.11 cm
- EF ([1]; DAY 60, 15 μg/kg/D sc): 42.9±11.32%
- LVEDd ([1]; DAY 60, 15 μg/kg/D sc): 0.975±0.07 cm
- LVEDs ([1]; DAY 60, 15 μg/kg/D sc): 0.794±0.10 cm
- Cardiac function / EF value compared with the control group ([1]; high-, middle- and low-dose groups (15, 7.5, 3.75 μg/kg/D sc), after 60 days of continuous administration): all improved; also recorded: higher than that of the control group
- LVEDd and LVEDs compared with the excipient group ([1]; high-dose group (15 μg/kg/D sc), 60 days): could be reduced
- LVEDd and LVEDs, cardiac systolic function, left ventricular remodeling ([2]; 30 μg/kg sc, after 35 consecutive days): significantly reduce the LVEDd and LVEDs and strengthen the cardiac systolic function, thereby reversing left ventricular remodeling
- EF [2, 3]: 44.5 ± 7.85 %
- LVEDd [2, 3]: 0.860 ± 0.04 cm
- LVEDs [2, 3]: 0.694 ± 0.06 cm
- EF [2, 4]: 45.5 ± 7.96 %
- LVEDd [2, 4]: 0.905 ± 0.04 cm
- LVEDs [2, 4]: 0.725 ± 0.06 cm
- EF [2, 5]: 44.3 ± 6.95 %
- LVEDd [2, 5]: 0.928 ± 0.05 cm
- LVEDs [2, 5]: 0.749 ± 0.06 cm
- EF [2, 6]: 44.9±6.09%
- LVEDd [2, 6]: 0.953±0.05 cm
- LVEDs [2, 6]: 0.767±0.06 cm
- EF [2, 7]: 44.9 ± 7.03%
- LVEDd [2, 7]: 0.953 ± 0.06 cm
- LVEDs [2, 7]: 0.764 ± 0.07 cm
- EF [2, 8]: 44.7 ± 6.26%
- LVEDd [2, 8]: 0.952 ± 0.05 cm
- LVEDs [2, 8]: 0.767 ± 0.07 cm
- EF [2, 9]: 46.5 ± 4.01 %
- LVEDd [2, 9]: 0.948 ± 0.04 cm
- LVEDs [2, 9]: 0.755 ± 0.04 cm
- EF [2, 10]: 39.1 ± 7.11 %
- LVEDd [2, 10]: 0.969 ± 0.04 cm
- LVEDs [2, 10]: 0.808 ± 0.05 cm
- EF [2, 11]: 45.0±5.51%
- LVEDd [2, 11]: 0.973±0.07 cm
- LVEDs [2, 11]: 0.783±0.08 cm
- EF [2, 12]: 42.2±5.48%
- LVEDd [2, 12]: 0.987±0.05 cm
- LVEDs [2, 12]: 0.807±0.06 cm
- EF [2, 13]: 38.8 ± 3.78 %
- LVEDd [2, 13]: 1.008 ± 0.06 cm
- LVEDs [2, 13]: 0.843 ± 0.06 cm
- EF [2, 14]: 39.0 ± 6.24 %
- LVEDd [2, 14]: 1.031 ± 0.05 cm
- LVEDs [2, 14]: 0.859 ± 0.07 cm
- EF [2, 15]: 41.3±4.92%
- LVEDd [2, 15]: 0.989±0.07 cm
- LVEDs [2, 15]: 0.814±0.08 cm
- EF [2, 16]: 35.4±6.78%
- LVEDd [2, 16]: 1.043±0.06 cm
- LVEDs [2, 16]: 0.887±0.06 cm
- EF [2, 17]: 40.8±4.67%
- LVEDd [2, 17]: 0.976±0.06 cm
- LVEDs [2, 17]: 0.805±0.07 cm
- EF [2, 18]: 38.9±5.04%
- LVEDd [2, 18]: 1.010±0.06 cm
- LVEDs [2, 18]: 0.842 ± 0.06 cm
- EF [2, 19]: 38.0 ± 3.81 %
- LVEDd [2, 19]: 1.004 ± 0.05 cm
- LVEDs [2, 19]: 0.842 ± 0.05 cm
- EF [2, 20]: 34.6 ± 7.55%
- LVEDd [2, 20]: 1.060 ± 0.05 cm
- LVEDs [2, 20]: 0.905 ± 0.05 cm
- Effect of sudden withdrawal on cardiac function ([2]; day 49, withdrawal subgroup stopped after day 38): exerted some effect on the cardiac function of the rats
- Cardiac function and cardiac remodeling, overall conclusion ([2]; long-term sc administration followed by withdrawal through frequency reduction): can improve the cardiac function of the rats with myocardial infarction and reduce cardiac remodeling
